Experimental data taken from the supplement of paper PMC10567573.

B1: STK38L (parent)
chain: NWKETLVFPPEVPISEKAKDLILR

Variants of: B1
Assay: protein stability index of a GFP-peptide fusion (GPS, HEK-293T) (PSI 1-6); higher = more stable
Settings: c terminus: a fixed tail appended
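Also: lentivirally expressed fusions sorted by FACS into six bins by GFP to DsRed ratio, PSI derived from sequencing read proportions per bin multiplied by bin number.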

Variant	protein stability index
NEKETLVFPPEVPISEKAKDLILR [W2E]	4.15
NVKETLVFPPEVPISEKAKDLILR [W2V]	3.59
NSKETLVFPPEVPISEKAKDLILR [W2S]	3.01
NMKETLVFPPEVPISEKAKDLILR [W2M]	3.54
NRKETLVFPPEVPISEKAKDLILR [W2R]	3.39
NAKETLVFPPEVPISEKAKDLILR [W2A]	4.45
NPKETLVFPPEVPISEKAKDLILR [W2P]	4.09
NTKETLVFPPEVPISEKAKDLILR [W2T]	4.64
NFKETLVFPPEVPISEKAKDLILR [W2F]	3.37
NHKETLVFPPEVPISEKAKDLILR [W2H]	3.46
NCKETLVFPPEVPISEKAKDLILR [W2C]	3.67
NQKETLVFPPEVPISEKAKDLILR [W2Q]	4.21
NNKETLVFPPEVPISEKAKDLILR [W2N]	4.14
NIKETLVFPPEVPISEKAKDLILR [W2I]	3.32
NDKETLVFPPEVPISEKAKDLILR [W2D]	3.68
NLKETLVFPPEVPISEKAKDLILR [W2L]	3.96
NYKETLVFPPEVPISEKAKDLILR [W2Y]	3.25
NWMETLVFPPEVPISEKAKDLILR [K3M]	2.42
NWRETLVFPPEVPISEKAKDLILR [K3R]	3.12
NWDETLVFPPEVPISEKAKDLILR [K3D]	3.69
NWHETLVFPPEVPISEKAKDLILR [K3H]	3.68
NWSETLVFPPEVPISEKAKDLILR [K3S]	3.17
NWNETLVFPPEVPISEKAKDLILR [K3N]	3.46
NWEETLVFPPEVPISEKAKDLILR [K3E]	3.41

Variant	protein stability index
NWFETLVFPPEVPISEKAKDLILR [K3F]	1.64
NWYETLVFPPEVPISEKAKDLILR [K3Y]	2.18
NWLETLVFPPEVPISEKAKDLILR [K3L]	2.02
NWVETLVFPPEVPISEKAKDLILR [K3V]	2.53
NWWETLVFPPEVPISEKAKDLILR [K3W]	2.07
NWCETLVFPPEVPISEKAKDLILR [K3C]	2.59
NWGETLVFPPEVPISEKAKDLILR [K3G]	3.17
NWAETLVFPPEVPISEKAKDLILR [K3A]	3.37
NWQETLVFPPEVPISEKAKDLILR [K3Q]	3.77
NWPETLVFPPEVPISEKAKDLILR [K3P]	3.71
NWIETLVFPPEVPISEKAKDLILR [K3I]	2.42
NWTETLVFPPEVPISEKAKDLILR [K3T]	3.23
NWKETLIFPPEVPISEKAKDLILR [V7I]	3.09
NWKETLMFPPEVPISEKAKDLILR [V7M]	2.94
NWKETLYFPPEVPISEKAKDLILR [V7Y]	2.9
NWKETLFFPPEVPISEKAKDLILR [V7F]	2.63
NWKETLKFPPEVPISEKAKDLILR [V7K]	2.95
NWKETLHFPPEVPISEKAKDLILR [V7H]	3.27
NWKETLAFPPEVPISEKAKDLILR [V7A]	3.52
NWKETLNFPPEVPISEKAKDLILR [V7N]	3.63
NWKETLRFPPEVPISEKAKDLILR [V7R]	2.72
NWKETLTFPPEVPISEKAKDLILR [V7T]	3.33
NWKETLDFPPEVPISEKAKDLILR [V7D]	3.81
NWKETLLFPPEVPISEKAKDLILR [V7L]	3.65

Variant	protein stability index
NWKETLCFPPEVPISEKAKDLILR [V7C]	3.35
NWKETLPFPPEVPISEKAKDLILR [V7P]	4.19
NWKETLGFPPEVPISEKAKDLILR [V7G]	4.56
NWKETLSFPPEVPISEKAKDLILR [V7S]	2.54
NWKETLQFPPEVPISEKAKDLILR [V7Q]	3.95
NWKETLWFPPEVPISEKAKDLILR [V7W]	4.68
NWKETLEFPPEVPISEKAKDLILR [V7E]	3.53
HWKETLVFPPEVPISEKAKDLILR [N1H]	3.04
CWKETLVFPPEVPISEKAKDLILR [N1C]	3.1
IWKETLVFPPEVPISEKAKDLILR [N1I]	2.18
MWKETLVFPPEVPISEKAKDLILR [N1M]	1.98
VWKETLVFPPEVPISEKAKDLILR [N1V]	2.41
DWKETLVFPPEVPISEKAKDLILR [N1D]	3.57
QWKETLVFPPEVPISEKAKDLILR [N1Q]	3.09
WWKETLVFPPEVPISEKAKDLILR [N1W]	1.78
YWKETLVFPPEVPISEKAKDLILR [N1Y]	2.44
RWKETLVFPPEVPISEKAKDLILR [N1R]	2.74
PWKETLVFPPEVPISEKAKDLILR [N1P]	3
KWKETLVFPPEVPISEKAKDLILR [N1K]	2.9
AWKETLVFPPEVPISEKAKDLILR [N1A]	2.16
SWKETLVFPPEVPISEKAKDLILR [N1S]	4.02
NWKATLVFPPEVPISEKAKDLILR [E4A]	2.1
NWKITLVFPPEVPISEKAKDLILR [E4I]	1.69
NWKPTLVFPPEVPISEKAKDLILR [E4P]	2.85

Variant	protein stability index
NWKYTLVFPPEVPISEKAKDLILR [E4Y]	1.32
NWKNTLVFPPEVPISEKAKDLILR [E4N]	1.76
NWKSTLVFPPEVPISEKAKDLILR [E4S]	2.32
NWKWTLVFPPEVPISEKAKDLILR [E4W]	1.78
NWKFTLVFPPEVPISEKAKDLILR [E4F]	2.29
NWKDTLVFPPEVPISEKAKDLILR [E4D]	3.01
NWKMTLVFPPEVPISEKAKDLILR [E4M]	2.58
NWKGTLVFPPEVPISEKAKDLILR [E4G]	2.31
NWKHTLVFPPEVPISEKAKDLILR [E4H]	2.82
NWKTTLVFPPEVPISEKAKDLILR [E4T]	2.57
NWKVTLVFPPEVPISEKAKDLILR [E4V]	2.38
NWKKTLVFPPEVPISEKAKDLILR [E4K]	2.47
NWKCTLVFPPEVPISEKAKDLILR [E4C]	2.16
NWKRTLVFPPEVPISEKAKDLILR [E4R]	1.97
NWKQTLVFPPEVPISEKAKDLILR [E4Q]	2.62
NWKETLVFHPEVPISEKAKDLILR [P9H]	2.57
NWKETLVFRPEVPISEKAKDLILR [P9R]	2.93
NWKETLVFNPEVPISEKAKDLILR [P9N]	2.78
NWKETLVFTPEVPISEKAKDLILR [P9T]	2.9
NWKETLVFGPEVPISEKAKDLILR [P9G]	1.93
NWKETLVFFPEVPISEKAKDLILR [P9F]	2.34
NWKETLVFDPEVPISEKAKDLILR [P9D]	2.77
NWKETLVFMPEVPISEKAKDLILR [P9M]	2.05
NWKETLVFAPEVPISEKAKDLILR [P9A]	2.69

Variant	protein stability index
NWKETLVFSPEVPISEKAKDLILR [P9S]	3.06
NWKETLVFVPEVPISEKAKDLILR [P9V]	2.52
NWKETLVFWPEVPISEKAKDLILR [P9W]	1.56
NWKETLVFEPEVPISEKAKDLILR [P9E]	2.75
NWKETLVFIPEVPISEKAKDLILR [P9I]	2.75
NWKETLVFCPEVPISEKAKDLILR [P9C]	2.27
NWKETLVFKPEVPISEKAKDLILR [P9K]	2.68
NWKETLVFLPEVPISEKAKDLILR [P9L]	2.32
NWKETLVFYPEVPISEKAKDLILR [P9Y]	1.96
NWKETLVFQPEVPISEKAKDLILR [P9Q]	4.18
NWKETLVCPPEVPISEKAKDLILR [F8C]	4.02
NWKETLVKPPEVPISEKAKDLILR [F8K]	4.21
NWKETLVWPPEVPISEKAKDLILR [F8W]	3.5
NWKETLVTPPEVPISEKAKDLILR [F8T]	3.58
NWKETLVHPPEVPISEKAKDLILR [F8H]	3.33
NWKETLVDPPEVPISEKAKDLILR [F8D]	3.9
NWKETLVLPPEVPISEKAKDLILR [F8L]	2.94
NWKETLVIPPEVPISEKAKDLILR [F8I]	3.43
NWKETLVNPPEVPISEKAKDLILR [F8N]	3.1
NWKETLVEPPEVPISEKAKDLILR [F8E]	3.98
NWKETLVVPPEVPISEKAKDLILR [F8V]	3.75
NWKETLVMPPEVPISEKAKDLILR [F8M]	3.78
NWKETLVAPPEVPISEKAKDLILR [F8A]	4.08
NWKETLVGPPEVPISEKAKDLILR [F8G]	3.02

Variant	protein stability index
NWKETLVSPPEVPISEKAKDLILR [F8S]	3.73
NWKETLVQPPEVPISEKAKDLILR [F8Q]	3.53
NWKETLVFPPAVPISEKAKDLILR [E11A]	2.87
NWKETLVFPPLVPISEKAKDLILR [E11L]	3.58
NWKETLVFPPNVPISEKAKDLILR [E11N]	2.69
NWKETLVFPPCVPISEKAKDLILR [E11C]	2.89
NWKETLVFPPDVPISEKAKDLILR [E11D]	3.15
NWKETLVFPPRVPISEKAKDLILR [E11R]	2.87
NWKETLVFPPIVPISEKAKDLILR [E11I]	2.52
NWKETLVFPPMVPISEKAKDLILR [E11M]	2.39
NWKETLVFPPHVPISEKAKDLILR [E11H]	2.81
NWKETLVFPPSVPISEKAKDLILR [E11S]	2.3
NWKETLVFPPGVPISEKAKDLILR [E11G]	2.65
NWKETLVFPPTVPISEKAKDLILR [E11T]	2.68
NWKETLVFPPFVPISEKAKDLILR [E11F]	1.92
NWKETLVFPPQVPISEKAKDLILR [E11Q]	3.36
NWKETQVFPPEVPISEKAKDLILR [L6Q]	3.87
NWKETFVFPPEVPISEKAKDLILR [L6F]	3.31
NWKETTVFPPEVPISEKAKDLILR [L6T]	3.46
NWKETEVFPPEVPISEKAKDLILR [L6E]	3.66
NWKETMVFPPEVPISEKAKDLILR [L6M]	3.31
NWKETRVFPPEVPISEKAKDLILR [L6R]	2.83
NWKETHVFPPEVPISEKAKDLILR [L6H]	2.61
NWKETIVFPPEVPISEKAKDLILR [L6I]	2.86

Variant	protein stability index
NWKETDVFPPEVPISEKAKDLILR [L6D]	3.93
NWKETGVFPPEVPISEKAKDLILR [L6G]	1.5
NWKETSVFPPEVPISEKAKDLILR [L6S]	3.62
NWKETAVFPPEVPISEKAKDLILR [L6A]	4.04
NWKETPVFPPEVPISEKAKDLILR [L6P]	4.16
NWKETNVFPPEVPISEKAKDLILR [L6N]	3.55
NWKETCVFPPEVPISEKAKDLILR [L6C]	3
NWKETVVFPPEVPISEKAKDLILR [L6V]	3.15
NWKETWVFPPEVPISEKAKDLILR [L6W]	2.74
NWKETKVFPPEVPISEKAKDLILR [L6K]	3.53
NWKETYVFPPEVPISEKAKDLILR [L6Y]	3.39
NWKETLVFPWEVPISEKAKDLILR [P10W]	1.78
NWKETLVFPYEVPISEKAKDLILR [P10Y]	2.48
NWKETLVFPLEVPISEKAKDLILR [P10L]	2.81
NWKETLVFPDEVPISEKAKDLILR [P10D]	3.43
NWKETLVFPFEVPISEKAKDLILR [P10F]	1.8
NWKETLVFPHEVPISEKAKDLILR [P10H]	3.03
NWKETLVFPKEVPISEKAKDLILR [P10K]	3.03
NWKETLVFPAEVPISEKAKDLILR [P10A]	2.65
NWKETLVFPMEVPISEKAKDLILR [P10M]	2.8
NWKETLVFPTEVPISEKAKDLILR [P10T]	3.35
NWKETLVFPCEVPISEKAKDLILR [P10C]	2.81
NWKETLVFPGEVPISEKAKDLILR [P10G]	2.49
NWKETLVFPVEVPISEKAKDLILR [P10V]	3.02

Variant	protein stability index
NWKETLVFPSEVPISEKAKDLILR [P10S]	2.6
NWKETLVFPQEVPISEKAKDLILR [P10Q]	3.3
NWKETLVFPIEVPISEKAKDLILR [P10I]	2.14
NWKEWLVFPPEVPISEKAKDLILR [T5W]	2.05
NWKELLVFPPEVPISEKAKDLILR [T5L]	2.09
NWKEYLVFPPEVPISEKAKDLILR [T5Y]	2.62
NWKEKLVFPPEVPISEKAKDLILR [T5K]	2.48
NWKEVLVFPPEVPISEKAKDLILR [T5V]	2.61
NWKEELVFPPEVPISEKAKDLILR [T5E]	2.36
NWKEDLVFPPEVPISEKAKDLILR [T5D]	3.65
NWKENLVFPPEVPISEKAKDLILR [T5N]	3.36
NWKEILVFPPEVPISEKAKDLILR [T5I]	2.53
NWKEPLVFPPEVPISEKAKDLILR [T5P]	3.42
NWKERLVFPPEVPISEKAKDLILR [T5R]	3.12
NWKEQLVFPPEVPISEKAKDLILR [T5Q]	4.08
NWKECLVFPPEVPISEKAKDLILR [T5C]	2.44
NWKESLVFPPEVPISEKAKDLILR [T5S]	2.87
NWKEMLVFPPEVPISEKAKDLILR [T5M]	2.75
NWKEALVFPPEVPISEKAKDLILR [T5A]	3.27
NWKEHLVFPPEVPISEKAKDLILR [T5H]	3.2
